# Results taken from patent US20150064273A1, “Mesenchymal Stem Cells Conditioned Medium and Methods of Generating and Using the Same” (Gamida-Cell Ltd., priority 2012, published 2015).
# Tests used:
# [1] = tested on: MSCs; settings: Tamama et al. 2010; cited from earlier work
# [2] = tested on: mesenchymal stem cells; assay: Mesenchymal stem cell culture with growth factors with or without nicotinamide, cell counts; type: cell-based; settings: growth factor 10 or 50 ng/ml with 5 mM NAM; three or four passages
# Procedure: Isolation: Bone marrow derived and adipose tissue derived mesenchymal cells were isolated based on their plastic adherence potential in expansion medium containing: High glucose DMEM and 10% Fetal Bovine Serum (FBS, Hyclone, Logan, Utah, USA) supplemented with 0.05 mg/ml Gentamicin (Sigma) and 2 mM L-glutamine (Biological Industries, Israel). Cells were allowed to adhere for 3-4 days and non-adherent cells were washed out with medium changes. The medium was further exchanged with fresh medium every 3-4 days.
# Maintenance and expansion: Once adherent cells reached approximately 80-90% confluency, they were detached with 0.25% trypsin-EDTA (Sigma), washed twice in DMEM and 10% Fetal Bovine Serum, with centrifugation, 400 g, 5 minutes, and re-plated at a 1:2 to 1:1000 dilution under the same culture conditions.
# Measurement of number of cells in culture: Cell number was measured using Cedex Automated Cell Counter (Innovatis). The cells were diluted 1:2 in Trypan Blue (Sigma) and cell number was measured automatically under microscope.
# Treatment of mesenchymal cultures with nicotinamide: Mesenchymal cultures were initiated as described above, and supplemented with nicotinamide 1-15 mM alone, or in combination with growth factors or growth factors alone, incubated at 37° C. in a humidified atmosphere of 5% CO2 in air. At each passage and at each medium exchange, the cultures were supplemented with mesenchymal medium, nicotinamide and growth factors.
# Mesenchymal stem cells were selected and cultured in the presence of particular growth factors (basic fibroblast growth factor—bFGF, heparin binding epidermal growth factor—HB-EGF, fibroblast growth factor 4—FGF-4 and platelet derived growth factor, homodimer, subunit B, PDGF-BB) in the presence and absence of nicotinamide for three or four passages and the number and size of the cells was calculated.
# Two concentrations (10 and 50 ng/ml) of each one of the following factors were examined.
# In addition, the influence of the combination: 5 mM NAM+50 ng/ml FGF4+50 ng/ml PDGF-BB was examined in comparison to an individual supplement.
# [3] = tested on: MSC; settings: Stewart et al. 2010; cited from earlier work
# [4] = tested on: mesenchymal stem cells; assay: Percent of MSC (CD105+CD45−) analyzed by FACS; type: cell-based; settings: FGF4 or PDGF-BB 50 ng/ml, NAM 5 mM
# Procedure: Four different batches of MSC cultures were treated with FGF4 (50 ng/ml), NAM (5 mM) or a combination of FGF4+NAM. Percent of MSC (CD105+CD45−) was analyzed by FACS. FIGS. 7A-D are graphs illustrating that MSC cultures treated with PDGF-BB or a combination of PDGF-BB+NAM comprise a higher fraction of cells other than MSCs that contaminates the cultures as compared to MSC cultured in the absence of PDGF-BB. Four different batches of MSC cultures were treated with PDGF-BB (50 ng/ml), NAM (5 mM) or a combination of PDGF-BB+NAM. Percent of MSC (CD105+CD45−) was analyzed by FACS. Surface antigen analysis: At different time points the cells were detached with 0.25% trypsin-EDTA. […] The cells were then washed in the above buffer and analyzed using a FACScalibur® flow cytometer (Becton Dickinson). […] Emission of 10000 cells was measured using logarithmic amplification, and analyzed using the CellQuest software (Becton Dickinson). Cells stained with FITC- and PE-conjugated isotype control antibodies were used to determine background fluorescence.
Molecule,effect on the ability of nicotinamide to increase proliferation of mesenchymal stem cells [2],further results
EGF: Epidermal growth factor,,increase in number of colony-forming units [1]: 25%
"basic FGF: basic fibroblast growth factor (bFGF, FGF2)",negative effect,
"BMP-3: member of the transforming growth factor beta family, known to enhance bone differentiation (protein, UniProt P12645 363-472, looked up) Bone morphogenetic protein 3: QWIEPRNCARRYLKVDFADIGWSEWIISPKSFDAYYCSGACQFPMPKSLKPSNHATIQSIVRAVGVVPGIPEPCCVPEKMSSLSILFFDENKNVVLKVYPNMTVESCACR",,increase in MSC proliferation [3]: threefold
"HB-EGF: heparin-binding EGF-like growth factor (protein, UniProt Q99075 63-148, looked up) Heparin-binding EGF-like …: DLQEADLDLLRVTLSSKPQALATPNKEEHGKRKKKGKGLGKKRDPCLRKYKDFCIHGECKYVKELRAPSCICHPGYHGERCHGLSL",negative effect,
"PDGF-BB: platelet derived growth factor, homodimer, subunit B (protein, UniProt P01127 82-190, looked up) Platelet-derived growth …: SLGSLTIAEPAMIAECKTRTEVFEISRRLIDRTNANFLVWPPCVEVQRCSGCCNNRNVQCRPTQVQLRPVQVRKIEIVRKKPIFKKATVTLEDHLACKCETVAAARPVT",inconsistent effect,Percent of MSC (CD105+CD45−) in culture [4]: contaminated with a higher fraction of cells other than MSCs
